This note sets out measurements from EP4471048A1, “PEPTIDE INHIBITORS OF INTERLEUKIN-23 RECEPTOR” (Zealand Pharma A/S, priority 2023, dated 2024).

Assay [1] addresses T1, Nluc-IL23R fusion protein (human, UniProt Q5VWK5 22-629).
T1 construct: range 22-629; Stably expressed in HEK293 cells; also called hIL-23R; human IL-23R; not shown: Nanoluc protein (N1371, Promega) at the N-terminus, after a secretion signal
T1 sequence (looked up): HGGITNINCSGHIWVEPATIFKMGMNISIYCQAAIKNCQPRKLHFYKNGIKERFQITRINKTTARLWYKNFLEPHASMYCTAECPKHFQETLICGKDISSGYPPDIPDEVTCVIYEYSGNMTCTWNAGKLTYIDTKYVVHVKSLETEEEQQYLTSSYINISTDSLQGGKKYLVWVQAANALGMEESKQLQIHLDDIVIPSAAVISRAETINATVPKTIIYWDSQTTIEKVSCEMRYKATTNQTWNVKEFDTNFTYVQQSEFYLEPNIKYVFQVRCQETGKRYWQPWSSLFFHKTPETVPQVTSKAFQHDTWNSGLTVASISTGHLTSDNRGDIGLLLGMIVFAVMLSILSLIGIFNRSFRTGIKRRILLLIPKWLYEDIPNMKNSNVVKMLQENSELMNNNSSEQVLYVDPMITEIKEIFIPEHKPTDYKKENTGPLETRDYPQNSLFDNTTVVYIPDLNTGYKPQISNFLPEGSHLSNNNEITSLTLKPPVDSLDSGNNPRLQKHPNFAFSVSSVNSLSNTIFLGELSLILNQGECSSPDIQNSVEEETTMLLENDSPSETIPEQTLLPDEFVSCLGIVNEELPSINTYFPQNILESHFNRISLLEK
The assay can be described thus: BRET competition vs TAMRA-labelled peptide, Nluc-IL23R membranes. On the technique in general: BRET reads energy transfer from a luciferase to a nearby fluorophore.

For assay [2], the target named is T2, human IL-23R endogenously expressed on DB cells (human, UniProt Q5VWK5 24-629).
T2 sequence (looked up): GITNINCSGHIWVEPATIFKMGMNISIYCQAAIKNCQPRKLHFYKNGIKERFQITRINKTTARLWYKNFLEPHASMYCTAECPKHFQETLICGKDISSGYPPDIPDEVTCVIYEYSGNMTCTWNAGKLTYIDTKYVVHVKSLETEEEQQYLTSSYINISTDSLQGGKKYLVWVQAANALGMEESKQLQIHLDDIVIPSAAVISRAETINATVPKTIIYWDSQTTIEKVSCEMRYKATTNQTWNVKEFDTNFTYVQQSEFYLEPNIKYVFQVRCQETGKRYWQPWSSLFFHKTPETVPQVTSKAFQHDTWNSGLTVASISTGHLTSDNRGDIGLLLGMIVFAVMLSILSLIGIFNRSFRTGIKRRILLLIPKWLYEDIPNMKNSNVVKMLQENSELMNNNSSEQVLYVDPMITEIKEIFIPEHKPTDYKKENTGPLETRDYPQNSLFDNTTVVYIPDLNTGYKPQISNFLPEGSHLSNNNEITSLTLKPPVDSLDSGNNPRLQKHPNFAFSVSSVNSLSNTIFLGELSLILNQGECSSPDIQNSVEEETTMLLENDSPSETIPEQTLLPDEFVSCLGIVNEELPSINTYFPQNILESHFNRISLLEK
Description: cell-based or functional assay.

*1 amine or outer side, *2 acyl side, *3 side chain or, on linkers, in order; H or OH if unused. Bridges are numbered along the chain shown (N, C = ends). Primed or numbered codes have the meaning given here. Where no end group is shown, it is not given here. [ ]: non-standard residue; d: D form. 4‑Aminomethyl‑phenylacetyl = 4-aminomethyl-phenylacetyl unit, its amine closes the lactam, O=C(Cc1ccc(CN[*:1])cc1)[*:2]; 1,3‑dibromopropan‑2‑one″ = linker forming 1,3-dithio-propan-2-one bridge -SCH2C(=O)CH2S- between two Cys; (N3)‑K = lysine with the alpha-amine converted to an azide, [N-]=[N+]=N[C@@H](CCCCN[*:3])C(=O)[*:2]; bLys = L-beta-lysine, (3S)-3,6-diaminohexanoic acid, O=C(C[C@H](CCCN[*:3])N[*:1])[*:2]; Phe(4-Me) = Cc1ccc(C[C@H](N)C(=O)O)cc1; 2Nal = N[C@@H](Cc1ccc2ccccc2c1)C(=O)O; AEF = NCCOc1ccc(C[C@H](N)C(=O)O)cc1; 3Pal = N[C@@H](Cc1cccnc1)C(=O)O; αMeL = CC(C)C[C@](C)(N)C(=O)O; 3Amb = NCc1cccc(C(=O)O)c1; Pra = C#CC[C@H](N)C(=O)O; Dab = NCC[C@H](N)C(=O)O; Aib = CC(C)(N)C(=O)O

In assay [1], [4‑Aminomethyl‑phenylacetyl]SCWQC[AEF][2Nal][αMeL]ER-NH2 (lactam N-10; linker 3-6 via 1,3‑dibromopropan‑2‑one″) [Ref 52] had a % displacement of 100%. For the same molecule, in assay [2], the “hIL-23 (pSTAT3) antagonist % inhibition” value was determined as 103% and the “hIL-23 (pSTAT3) antagonist IC50” value worked out at 7.8 nM.
Taken in the same sequence, the figures for [4‑Aminomethyl‑phenylacetyl]SCWQC[AEF][2Nal][αMeL]E[dR]-NH2 (lactam N-10; linker 3-6 via 1,3‑dibromopropan‑2‑one″) [Ref 80] were 98%, 97% and 11 nM.

B1: Compound 2 (peptide)
peptide: KTVWQE[AEF][2Nal][αMeL]E[Dab][3Pal]-NH2
modifications: lactam 1-10, N-6
SMILES: CC(C)C[C@]1(C)NC(=O)[C@H](Cc2ccc3ccccc3c2)NC(=O)[C@H](Cc2ccc(OCCN)cc2)NC(=O)[C@@H]2CCC(=O)N[C@@H](CCCCNC(=O)CC[C@@H](C(=O)N[C@@H](CCN)C(=O)N[C@@H](Cc3cccnc3)C(N)=O)NC1=O)C(=O)N[C@@H]([C@@H](C)O)C(=O)N[C@@H](C(C)C)C(=O)N[C@@H](Cc1c[nH]c3ccccc13)C(=O)N[C@@H](CCC(N)=O)C(=O)N2
As to B1, the % displacement in assay [1] amounted to 100%. For the same molecule, in assay [2], the “hIL-23 (pSTAT3) antagonist % inhibition” value was found to be 99% and the “hIL-23 (pSTAT3) antagonist IC50” value stood at 0.11 nM.

B2: Compound 42 (peptide)
peptide: XTWQXXXXEXX
modifications: not fully specified; [{d}(N3)-K](1c)(6g)^†TWQ[Hpg](6g)[Y(2-aminoethoxy)][2-Nal][2-Me-Leu]E(1c)[Dab][3-(3-Pyridyl)-Ala]-[NHMe]; (1c) [2,11] lactam; (6g) [2,7] 1,4-disubstituted 1,2,3-triazole bridge; ^† alpha-amine converted into an azide in bridge
In assay [1], B2 showed a % displacement of 96%.
[4‑Aminomethyl‑phenylacetyl]SCWQC[AEF][2Nal][αMeL]E[Dab][3Pal]-NH2 (lactam N-10; linker 3-6 via 1,3‑dibromopropan‑2‑one″) [Ref 120] yielded a % displacement in assay [1] of 94%. In addition, in assay [2], the “hIL-23 (pSTAT3) antagonist % inhibition” value is 101% and the “hIL-23 (pSTAT3) antagonist IC50” value amounted to 54 pM.

B3: Compound 1 (peptide)
peptide: [dK]TVWQE[AEF][2Nal][αMeL]E[Dab][3Pal]-NH2
modifications: lactam 1-10; lactam (positions not given here); not fully specified (bridges); printed as [{d}K](1c)(6c)^{†}TVWQE(6c)[Y(2-aminoethoxy)][2-Nal][2-Me-Leu]E(1c)[Dab][3-(3-Pyridyl)-Ala]-[NH2]
In assay [1], B3 displayed a % displacement of 103%. Also, in assay [2], the “hIL-23 (pSTAT3) antagonist % inhibition” value came to 102% and the “hIL-23 (pSTAT3) antagonist IC50” value came to 0.23 nM.

B4: Compound 17 (peptide)
peptide: KIVWQE[Phe(4-Me)][2Nal][Aib]E[Dab][3Pal]-NH2
modifications: lactam 1-10, N-6
SMILES: CC[C@H](C)[C@@H]1NC(=O)[C@@H]2CCCCNC(=O)CC[C@@H](C(=O)N[C@@H](CCN)C(=O)N[C@@H](Cc3cccnc3)C(N)=O)NC(=O)C(C)(C)NC(=O)[C@H](Cc3ccc4ccccc4c3)NC(=O)[C@H](Cc3ccc(C)cc3)NC(=O)[C@H](CCC(=O)N2)NC(=O)[C@H](CCC(N)=O)NC(=O)[C@H](Cc2c[nH]c3ccccc23)NC(=O)[C@H](C(C)C)NC1=O
As for B4, in assay [1], the % displacement was 107% and the IC50 is 0.092 nM. In addition, in assay [2], the “hIL-23 (pSTAT3) antagonist % inhibition” value was 99% and the “hIL-23 (pSTAT3) antagonist IC50” value came to 2.9 nM.

B5: Compound 43 (peptide)
peptide: KWQE[AEF][2Nal][αMeL]E[Dab][3Pal]-NHMe
modifications: lactam 1-8, N-4
SMILES: CNC(=O)[C@H](Cc1cccnc1)NC(=O)[C@H](CCN)NC(=O)[C@@H]1CCC(=O)NCCCC[C@@H]2NC(=O)CC[C@H](NC(=O)[C@H](CCC(N)=O)NC(=O)[C@H](Cc3c[nH]c4ccccc34)NC2=O)C(=O)N[C@@H](Cc2ccc(OCCN)cc2)C(=O)N[C@@H](Cc2ccc3ccccc3c2)C(=O)N[C@@](C)(CC(C)C)C(=O)N1
B5: in assay [1], the % displacement worked out at 100%.
For the molecule [4‑Aminomethyl‑phenylacetyl]SEWQ[Dab][AEF][2Nal][αMeL]E[Dab][3Pal]-NH2 (lactam N-10; bridge 3-6; also: (2c) bridge type not defined) [Ref 122], in assay [1], the % displacement stood at 97%. Further, in assay [2], the “hIL-23 (pSTAT3) antagonist IC50” value came out at 28 pM.
On to [3Amb]SCWQC[AEF][2Nal][αMeL]ER[3Pal]-NH2 (lactam N-10; linker 3-6 via 1,3‑dibromopropan‑2‑one″) [Ref 78], for which, in assay [1], the % displacement was found to be 100%. Further, in assay [2], the “hIL-23 (pSTAT3) antagonist % inhibition” value came out at 100% and the “hIL-23 (pSTAT3) antagonist IC50” value came out at 0.13 nM.

B6: Compound 60 (peptide)
peptide: KIVWQE[AEF][2Nal][αMeL]E[Dab][3Pal]-NHMe
modifications: lactam 1-10, N-6
SMILES: CC[C@H](C)[C@@H]1NC(=O)[C@@H]2CCCCNC(=O)CC[C@@H](C(=O)N[C@@H](CCN)C(=O)N[C@@H](Cc3cccnc3)C(=O)NC)NC(=O)[C@](C)(CC(C)C)NC(=O)[C@H](Cc3ccc4ccccc4c3)NC(=O)[C@H](Cc3ccc(OCCN)cc3)NC(=O)[C@H](CCC(=O)N2)NC(=O)[C@H](CCC(N)=O)NC(=O)[C@H](Cc2c[nH]c3ccccc23)NC(=O)[C@H](C(C)C)NC1=O
The molecule B6 returned a % displacement in assay [1] of 95%. In assay [2], the “hIL-23 (pSTAT3) antagonist % inhibition” value is 101% and the “hIL-23 (pSTAT3) antagonist IC50” value amounted to 0.63 nM.
The matching figures for Ac-KTCWQC[AEF][2Nal][αMeL]E[Dab][3Pal]-NH2 (lactam 1-10; linker 3-6 via 1,3‑dibromopropan‑2‑one″) [Ref 155]: 97%, 100% and 31 pM.

B7: Compound 41 (peptide)
peptide: [(N3)‑K]TWQ[Pra][AEF][2Nal][αMeL]E[Dab][3Pal]-NHMe
modifications: lactam 1-9; triazole (positions not given here); not fully specified (bridges); printed as [(N₃)-K](1c)(6g)^{†}TWQ[Pra](6g)[Y(2-aminoethoxy)][2-Nal][2-Me-Leu]E(1c)[Dab][3-(3-Pyridyl)-Ala]-[NHMe]
In the case of B7, the % displacement in assay [1] turned out to be 98%.
Molecule [bLys]TVWQE[AEF][2Nal][αMeL]E[Dab][3Pal]-NH2 (lactam 1-10, N-6) [Compound 12] yielded a % displacement in assay [1] of 104%. Moreover, in assay [2], the “hIL-23 (pSTAT3) antagonist % inhibition” value came out at 100%.
Regarding [4‑Aminomethyl‑phenylacetyl]SCWQC[AEF][2Nal][αMeL]E[Dab]-NH2 (lactam N-10; linker 3-6 via 1,3‑dibromopropan‑2‑one″) [Ref 82], in assay [1], the % displacement was determined as 103%. Besides, in assay [2], the “hIL-23 (pSTAT3) antagonist % inhibition” value was found to be 97% and the “hIL-23 (pSTAT3) antagonist IC50” value was found to be 11 nM.
Taken in the same sequence, the figures for [3Amb]SCWQC[AEF][2Nal][αMeL]E[dR]-NH2 (lactam N-10; linker 3-6 via 1,3‑dibromopropan‑2‑one″) [Ref 41] were 110%, 99% and 29 nM.

The term IC50 denotes the concentration needed to halve the response being measured.
